From publication PMC4937323 come the findings set out here.

Like-named read-outs stand apart in the source and are kept apart here.

Data set [1] concerns the target AroB (Homo sapiens, UniProt P27694;P15927;P35244 1-616;1-270;1-121, W361A;F386A). Kind of data set: smTIRFM.
Data set [2] concerns the target AroA (Homo sapiens, UniProt P27694;P15927;P35244 1-616;1-270;1-121, F238A;F269A). In words: smTIRFM.
Data set [3] deals with T1, Aro2 (Homo sapiens, UniProt P27694;P15927;P35244 1-616;1-270;1-121, F269A;F386A). In words: smTIRFM.
T1 sequence (P27694 whole entry F269A/F386A, chain 1 of 3): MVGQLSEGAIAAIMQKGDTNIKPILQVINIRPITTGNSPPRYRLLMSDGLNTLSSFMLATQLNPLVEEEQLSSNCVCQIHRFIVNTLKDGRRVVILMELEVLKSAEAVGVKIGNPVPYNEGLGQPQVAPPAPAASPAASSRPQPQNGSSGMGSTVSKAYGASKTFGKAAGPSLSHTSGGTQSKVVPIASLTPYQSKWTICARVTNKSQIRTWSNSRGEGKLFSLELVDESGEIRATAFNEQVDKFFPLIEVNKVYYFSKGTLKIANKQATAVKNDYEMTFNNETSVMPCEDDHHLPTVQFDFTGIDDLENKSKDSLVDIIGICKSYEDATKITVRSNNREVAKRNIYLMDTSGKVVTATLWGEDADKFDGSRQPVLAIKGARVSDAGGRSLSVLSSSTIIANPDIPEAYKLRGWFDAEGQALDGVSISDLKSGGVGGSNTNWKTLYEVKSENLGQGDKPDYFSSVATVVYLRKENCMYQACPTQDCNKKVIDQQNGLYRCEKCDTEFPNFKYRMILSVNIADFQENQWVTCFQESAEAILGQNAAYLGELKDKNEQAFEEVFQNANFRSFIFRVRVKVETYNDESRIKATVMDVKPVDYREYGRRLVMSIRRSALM
T1 sequence (P15927 whole entry, chain 2 of 3): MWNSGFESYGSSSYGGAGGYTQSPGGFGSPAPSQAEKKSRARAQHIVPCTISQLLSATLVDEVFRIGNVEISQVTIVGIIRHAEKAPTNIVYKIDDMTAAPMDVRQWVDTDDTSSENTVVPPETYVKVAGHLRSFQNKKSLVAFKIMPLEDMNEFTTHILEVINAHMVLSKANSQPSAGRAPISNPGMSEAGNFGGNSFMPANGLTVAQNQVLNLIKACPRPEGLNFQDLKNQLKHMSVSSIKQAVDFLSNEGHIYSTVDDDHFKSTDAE
T1 sequence (P35244 whole entry, chain 3 of 3): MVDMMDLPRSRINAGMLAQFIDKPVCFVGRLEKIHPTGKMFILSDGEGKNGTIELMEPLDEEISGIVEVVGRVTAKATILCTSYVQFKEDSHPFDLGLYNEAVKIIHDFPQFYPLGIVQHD
The target of data set [4] is RPA (wild-type, biotinylated on RPA3) (Homo sapiens, UniProt P27694;P15927;P35244 1-616;1-270;1-121). In words: EMSA.
Sequence of RPA (wild-type, biotinylated on RPA3) (P27694 whole entry, chain 1 of 3): as the sequence (P27694 whole entry F269A/F386A, chain 1 of 3) above, with A269F, A386F counted along it
Sequence of RPA (wild-type, biotinylated on RPA3) (P15927 whole entry, chain 2 of 3): as the sequence (P15927 whole entry, chain 2 of 3) above
Sequence of RPA (wild-type, biotinylated on RPA3) (P35244 whole entry, chain 3 of 3): as the sequence (P35244 whole entry, chain 3 of 3) above
The target in data set [5] is T1, Aro2. Kind of data set: smTIRFM. The source holds these as a separate data set.

Sequence of AroA (P27694 whole entry F238A/F269A, chain 1 of 3): as the sequence (P27694 whole entry F269A/F386A, chain 1 of 3) above, with F238A, A386F counted along it
Sequence of AroA (P15927 whole entry, chain 2 of 3): as the sequence (P15927 whole entry, chain 2 of 3) above
Sequence of AroA (P35244 whole entry, chain 3 of 3): as the sequence (P35244 whole entry, chain 3 of 3) above
Sequence of AroB (P27694 whole entry W361A/F386A, chain 1 of 3): as the sequence (P27694 whole entry F269A/F386A, chain 1 of 3) above, with A269F, W361A counted along it
Sequence of AroB (P15927 whole entry, chain 2 of 3): as the sequence (P15927 whole entry, chain 2 of 3) above
Sequence of AroB (P35244 whole entry, chain 3 of 3): as the sequence (P35244 whole entry, chain 3 of 3) above

TTTTTTTTTTTTTTT (ssDNA) [dT15]: the binding result in data set [1], in data set [2] and in data set [3] was “no binding” each time.

B1: 20 nt Bubble DNA (mixed)
DNA 1: CCCTAGATACCAGTAAGCCTAAGGCCGGATCTCGGGCCATCCATGTACGC
DNA 2: GCGTACATGGATGGCTTAGAGCTTAATTCCGAATCTACTGGTATCTAGGG
Take B1: the binding result in data set [4] is given as “binds”.

With TTTTTTTTTTTTTTTTTTTT (ssDNA) [dT20], the binding result in data set [5] is given as “binds”.
